The values below come from patent US20040110923, “Nucleic acid binding polypeptides” (published 2004).

Conditions in all cases: tags: HA tag (YPYDVPDYA) at C-terminus; label: biotin
Data set [1] addresses CXCR4-5-1 six-zinc finger peptide (synthetic construct). Briefly: fluorescence ELISA; 10 nM site, 50 uM ZnCl2, salmon sperm competitor, RT. How it is done: (§1) DNA binding reactions contained the appropriate zinc finger peptide, biotinylated binding site (10 nM) and 5 μg competitor. DNA (sonicated salmon sperm DNA), in a total volume of 50 μl, which contained: 1×PBS (pH 7.0), 1.25×10⁻³ U high affinity anti-HA-Peroxidase antibody (Boehringer Mannheim), 50 μM ZnCl₂, 0.01 mg/ml BSA, and 0.5% Tween 20. Incubations are performed at room temperature for 40 minutes. Black streptavidin-coated wells are blocked with 4% marvel for 1 hour. Binding reactions are added to the streptavidin-coated wells and incubated for a further 40 minutes at room temperature. Wells are washed 5 times in 100 μl wash buffer (1×PBS (pH 7.0), 50 μM ZnCl₂, 0.01 mg/ml BSA, and 0.5% Tween 20), and finally 50 μl QuantaBlu peroxidase substrate solution (Pierce) is added to detect bound HA-tagged zinc finger peptide. ELISA signals are read in a SPECTRAmax GeminiXS spectrophotometer (Molecular Devices) and analysed using SOFTmax Pro 3.1.2 (Molecular Devices).
(§2) Zinc finger peptides are expressed using the T7 TNT Quick Coupled Transcription/Translation System for PCR templates (Promega) and assayed for DNA-binding by fluorescence ELISA (see above; FIG. 1). Binding is plotted vertically, on a relative scale. Sequences of the DNA target sites used in each binding reaction are shown below the figure. […]

In data set [2] the target is CXCR4-10-1 six-zinc finger peptide (synthetic construct). The data set is described as above. How it is done:
as §1, §2

In data set [3] the target is TNFR1-9-12 six-zinc finger peptide (synthetic construct). Briefly: fluorescence ELISA; control site; signal only in figure, text states specific binding. How it is done: as §1
(§3) Zinc finger peptides are expressed using the T7 TNT Quick Coupled Transcription/Translation System for PCR templates (Promega) and assayed for DNA-binding by fluorescence ELISA, as described above in Examples 4 and 6. Sequences of the DNA target sites used in each binding reaction are shown below FIG. 3A.
In general terms: An ELISA detects its analyte on a solid surface through an enzyme-linked reagent.

The target in data set [4] is T1, TNFR1-7-9 six-zinc finger peptide (synthetic construct). Described as above. How it is done: as §1, §3
The target of data set [5] is TNFR1-4-2 six-zinc finger peptide (synthetic construct). In words: fluorescence ELISA; 50 uM ZnCl2, RT. How it is done: as §1, §3
In data set [6] the target is T1, TNFR1-7-9 six-zinc finger peptide. Briefly: fluorescence ELISA; 50 uM ZnCl2, RT. How it is done: as §1, §3

T1 sequence (chain, as listed by the source): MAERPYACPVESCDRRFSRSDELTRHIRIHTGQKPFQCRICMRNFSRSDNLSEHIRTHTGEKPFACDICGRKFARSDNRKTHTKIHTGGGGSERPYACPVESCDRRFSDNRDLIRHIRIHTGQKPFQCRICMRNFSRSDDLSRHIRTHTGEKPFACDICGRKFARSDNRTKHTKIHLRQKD
Chain of TNFR1-4-2 six-zinc finger peptide (synthetic construct) (chain, as listed by the source): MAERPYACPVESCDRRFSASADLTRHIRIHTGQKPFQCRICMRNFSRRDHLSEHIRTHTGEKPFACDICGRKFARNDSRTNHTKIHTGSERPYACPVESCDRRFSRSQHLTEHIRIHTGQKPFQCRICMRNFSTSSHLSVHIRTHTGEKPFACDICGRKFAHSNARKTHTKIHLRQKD
Chain of CXCR4-10-1 six-zinc finger peptide (synthetic construct) (chain, as listed by the source): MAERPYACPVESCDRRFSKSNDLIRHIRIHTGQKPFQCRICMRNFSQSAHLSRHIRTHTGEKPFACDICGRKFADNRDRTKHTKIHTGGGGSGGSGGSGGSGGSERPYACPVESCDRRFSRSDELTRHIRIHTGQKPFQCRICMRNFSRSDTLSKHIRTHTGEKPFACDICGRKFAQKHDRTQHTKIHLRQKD
Chain of TNFR1-9-12 six-zinc finger peptide (synthetic construct) (chain, as listed by the source): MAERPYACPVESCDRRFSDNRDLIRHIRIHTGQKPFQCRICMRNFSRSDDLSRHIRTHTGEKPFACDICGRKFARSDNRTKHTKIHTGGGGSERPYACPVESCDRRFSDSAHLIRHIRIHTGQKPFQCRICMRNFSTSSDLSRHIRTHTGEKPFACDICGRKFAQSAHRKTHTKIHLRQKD
Chain of CXCR4-5-1 six-zinc finger peptide (synthetic construct) (chain, as listed by the source): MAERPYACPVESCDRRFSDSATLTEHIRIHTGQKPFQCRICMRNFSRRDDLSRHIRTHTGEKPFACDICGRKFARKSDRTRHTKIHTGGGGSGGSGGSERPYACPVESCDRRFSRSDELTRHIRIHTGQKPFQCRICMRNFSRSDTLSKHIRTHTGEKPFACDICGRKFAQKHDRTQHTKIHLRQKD

B1: CXCR4-5-1 target site (dsDNA)
DNA 1: CCGCCCCAGCGGCGCATGCGCCGCGCTCGGAGCGTGTT
DNA 2: AACACGCTCCGAGCGCGGCGCATGCGCCGCTGGGGCGG
In the case of B1, the binding result in data set [1] is “binds”.

B2: CXCR4-10-1 target site (dsDNA)
DNA 1: B1 DNA 1
DNA 2: B1 DNA 2
Consider B2, for which, in data set [2], the binding result is recorded as “binds”.

B3: TNFR1 site 4-2 (dsDNA)
DNA 1: GTCGGATTGGTGGGTTGGGGGCACAAGGCA
DNA 2: TGCCTTGTGCCCCCAACCCACCAATCCGAC
Consider B3, for which the binding result in data set [3] is on record as “no binding”; in data set [4], “no binding”; in data set [5], “binds”.

B4: TNFR1 site 7-9 / 7-10 (dsDNA)
DNA 1: TGGAGGAGGAGGCCACAGGAGGCGGGAGGA
DNA 2: TCCTCCCGCCTCCTGTGGCCTCCTCCTCCA
On to B4, for which, in data set [6], the binding result was “binds”.
